Measurements: PMC1888729

T1: His-tagged U2AF35 (HEK-293E), Q01081
T1 chain: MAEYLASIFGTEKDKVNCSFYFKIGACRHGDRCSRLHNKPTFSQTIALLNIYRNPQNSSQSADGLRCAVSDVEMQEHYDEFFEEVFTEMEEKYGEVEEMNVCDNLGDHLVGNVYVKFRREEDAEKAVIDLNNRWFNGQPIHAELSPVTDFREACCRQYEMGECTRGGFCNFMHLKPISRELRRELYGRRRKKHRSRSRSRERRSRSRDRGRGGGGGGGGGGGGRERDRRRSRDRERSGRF

T2: U2AF35 (recombinant human, baculovirus-infected SF9 cells) (human), Q01081
T2 chain: T1 chain

B1: U2AF65 (co-purified from HEK-293E), P26368 1-475 (natural protein)
chain: MSDFDEFERQLNENKQERDKENRHRKRSHSRSRSRDRKRRSRSRDRRNRDQRSASRDRRRRSKPLTRGAKEEHGGLIRSPRHEKKKKVRKYWDVPPPGFEHITPMQYKAMQAAGQIPATALLPTMTPDGLAVTPTPVPVVGSQMTRQARRLYVGNIPFGITEEAMMDFFNAQMRLGGLTQAPGNPVLAVQINQDKNFAFLEFRSVDETTQAMAFDGIIFQGQSLKIRRPHDYQPLPGMSENPSVYVPGVVSTVVPDSAHKLFIGGLPNYLNDDQVKELLTSFGPLKAFNLVKDSATGLSKGYAFCEYVDINVTDQAIAGLNGMQLGDKKLLVQRASVGAKNATLVSPPSTINQTPVTLQVPGLMSSQVQMGGHPTEVLCLMNMVLPEELLDDEEYEEIVEDVRDECSKYGLVKSIEIPRPVDGVEVPGCGKIFVEFTSVFDCQKAMQGLTGRKFANRVVVTKYCDPDSYHRRDFW
B2: U2AF65 (recombinant human, baculovirus-infected SF9 cells), P26368 1-475 (natural protein)
chain: B1 chain

Assays:
[1] = biological target: T1, His-tagged U2AF35 (HEK-293E), Q01081; assay: pull-down; His-tagged U2AF35 expressed in 293E cells, lysate (50 mM Tris-HCl pH 8, 1% NP-40, 5 mM imidazole) on Ni-NTA agarose 1 h at 4°C, wash 0.5 M NaCl, eluted with 0.5 M imidazole; western blot; amounts by Coomassie stain against BSA; settings: remark: other sources report otherwise
[2] = biological target: T2, U2AF35 (recombinant human, …); assay: co-purification; human U2AF65/35 heterodimer purified from baculovirus-infected SF9 cells as described previously; settings: remark: other sources report otherwise

Row | Binder | stoichiometry N (U2AF35 per U2AF65) [1] | stoichiometry N (U2AF35 per U2AF65) [2]
1 | B1 | 3.5 | 
2 | B2 |  | 1
